Experimental data taken from the DeepSol protein solubility set.

Assay: soluble on expression in E. coli; label from the status in PepcDB or PDB records

| Sequence | soluble on expression in E. coli |
| --- | --- |
| MSLATLQDLDLTGNTNLVLEHKTLDIFSHITTLKIDQKPLPTTDSTVTSTFWSHGLAEMAGQRNKLCVSALAMDSFAEGVGAVYGMFDGDRNEELPRLLQCTMADVLLEEVQQSTNDTVFMANTFLVSHRKLGMAGQKLGSSALLCYIRPDTADPASSFSLTVANVGTCQAVLCRGGKPVPLSKVFSLEQDPEEAQRVKDQKAIITEDNKVNGVTCCTRMLGCTYLYPWILPKPHISSTPLTIQDELLILGNKALWEHLSYTEAVNAVRHVQDPLAAAKKLCTLAQSYGCQDNVGAMVVYLNIGEEGCTCEMNGLTLPGPVGFASTTTIKEGHHHHHH | soluble |
| MKVKTQFVCNQCAAIFKQWAGQCTQCGAWNSIVEEGIMPENKTLRSGQWANQRSVITAVEDVVMDKIVRMDCGISELNRVLGGGLVYGSVVLIGGDPGIGKSTLLLQTLANLSMQETVLYVTGEESLQQVAMRAQRLGLPLAGLRLLAETQVESIIAQAQKEKPRIIVVDSVQTIFTEAISSAPGGVSQVRESAAQLVRYAKMTNTAIFLVGHVTKEGTLAGPRVLEHMVDSVLYFEGQNDSRFRVIRAIKNRFGAVNELGVFAMTDKGLKEVANPSAIFLSRQPEPTPGSAVMVTWEGSRPMLVEVQALVDEAHGQQAKRVTAGLEHNRLAILLAVLHRHGGIATYDQDVFINVVGGVKVTETASDLALLAAVISSLRNRIFDSETIIFGEVGLAGEIRPVQSGQERIKEAIKHGFKRAIVPFANAPKQQIDSMTVEPVKHLRDVLEKM | not soluble |
| MQVIKTNETFDSLDKSKLERMLDIKEAHREGHLTLEEAKERMKKEVGSISPEEFAAAEQLFKERDQDECQNEDVRTMLQLFEGLINPIRPDLPFGHPIDAYLRENDKAKELLDQADALLERTFIPNPWIELMETLMGYKLHFARKQNQLYSTLEQKGFDRPSTTMWTYDDHIRDEMNKAMSLLREKDYDSFPAAYKEMAIVLRDLMEKEELILYPTSLKLISDKEFEEMKHGDREIGFFLIDMPELDAPAKQSKEAHGQSFMAELGALLAKHGMGTGGQDDKAILDVAEGKLTLEQINLLFRHLPVDISFVDENELVCFYTDTKHRVFPRSKGVIGREVRNCHPPKSVHIVEEIIDKFRRGEQDRAEFWINKPGVFIYIVYVAIRDADGRFRGVMEMMQDCTRIRSLEGSRTLLTWDEEQSPAQGSKESESDTAGEDGIRPDTKLKSLLQRYPQLMDDLPTISSKFTLLRSPMAKVILPVATIKMMSERADIPSDMLIGKLESLIASYNKPDRSEEK | not soluble |
| MQFLSIGVNDDADSLKEYLINELARNNKKNINYLVRDVADSEGSTSIICSLADNDAPSDMNSHLYKELVLNVSNALATFIIDKYEEKLIYRIINSNYCYFTQAERKEIQRLTLAIIKNEERNLLNSFFQIRRKNIIIKRLLEYFESSNTVILDGFVNFRLKDYMKDLEEIVEKAVDDFLMEREYREFIRLLRYFVDIQEPKFNAVHIIAGYDNKYVLLDENKNEITNECLQEFVNDIPEGEINYDDLLVSSLITMAPRKLVIHGAKSFRNKELLETIKNVFWGKVVICSECELCMVNMVRSENKSQI | not soluble |
| MCGRIAQKSAPEDYVEILWPNARLIFDDVAGPRYNIPPGTRPLTMHRLVDQAEALARLPWGYKPHGSRFFMVNAKLETIERHGWPWKLMIGVGRILVPADGWYEWRALDSGPKPAKQSYYIHGDAPLLFAGLSAWRRGAELDEAHGFAIVTNDALGGMVDVHDRRPVALPPELAREWVDPATPVARAKEILRAGLPETAFSWYPVRQEVGSSKYQLPDAVDPLLEHHHHHH | not soluble |
| MATSKILLYYAFTPLSDPKAVQLWQRELCESLNLRGRILISTHGINGTVGGDIDDCKAYIKKTREYPGFNRMQFKWSEGGAEDFPKLSVKVRDEIVAFGAPDELKVDENGVVGGGVHLKPQQVNELVEARGDEVVFFDGRNAMEAQIGKFKDAVVPDVETTHDFIAEIESGKYDDLKDKPVVTYCTGGIRCEILSSLMINRGFKEVYQIDGGIVRYGEQFGNKGLWEGSLYVFDKRMHMEFGEDYKEVGHCIHCDTPTNKFEHCLNEDDCRELVLMCPDCFANVETRHCKRERCAAIAADFAEQGIDPLVTSLEHHHHHH | soluble |
| MAHHHHHHMYRNLFDKLKDGPLKISILGSGNWASAISKVVGTNAKNNYLFENEVRMWIRDEFVNGERMVDIINNKHENTKYLKGVPLPHNIVAHSDLASVINDADLLIFIVPCQYLESVLASIKESESIKIASHAKAISLTKGFIVKKNQMKLCSNYISDFLNIPCSALSGANIAMICGALKNIITLACGFCDGLNLPTNSKSAIIRNGINEMILFGKGTVTLKYVYHMIKEKNMTNEFPLFTVLHKISFENEDPSSLLKTFMNNKINQLNL | not soluble |
| MVAAAVVGTAAVGTKAATDPRSVGTQVDDGTLEVRVNSALSKDEQIKKEARINVTAYQGKVLLVGQSPNAELSARAKQIAMGVDGANEVYNEIRQGQPIGLGEASNDTWITTKVRSQLLTSDLVKSSNVKVTTENGEVFLMGLVTEREAKAAADIASRVSGVKRVTTAFTFIKLEHHHHHH | not soluble |
| MGSDKIHHHHHHMILMNNPGDKEVLRLLKQRMESVSQVEETVKEIIRRVKEEGDRALEEFLKRFEKHPVGIENLRVTEKEISEAQVEEEFVETIKIVIEDLKEFHRRQEERSFFFTTKGGSFLGEMVVPLESVGIYVPGGKVPYFSTLLMCAVPAIVAGVERIAVTTPPNENGGISPYILKTCEILGLKEIYRMGGAHAVAALTYGTETVKPVDKIVGPGGVFVTLAKKHVYGDVGIDSIAGPSEIAIVTDGSADLDLIAADFLSQAEHDENAMSVVITTSKEVFEKLPQVIERHLEALPEERRKTARISTENFGTIILTDSLKRAFEISNLIAPEHLEVLVENPFEPLGHIKNAGSVFLGKYTCESVGDYGAGPNHVLPTFRSARFSSGLRVSDFTKKIFITHLSEEDFRRKSELYSKMARWEGFEAHARAIDVRREKL | not soluble |
| MGSDKIHHHHHHMNVFPADRIEAMHDAGLDILERLGIKVLLPEARAIFATAGAMVKDDMVYIGRDIVEASLASAPRRIEGRAGAPERDVVLELGSLVFQPGAGAPHATDEVRGRRPGCARDFKELIQLTNHFDVFHMLPPLVEPQDIATNIRHYFTLECQLTESNKFPFIFSRGTPQVTESFEMLRDFRGLSDAEFEAEPRCYTIINTNSPRTLDVPMAQGLIDFARMGQISIVTPFTLMGAMAPITVAGAITLSHAEALAAITLTQLTNPGAPVCYGTFTSNVDMKSGAPAFGTPSHFQASLAAGQLARHIGLPWRSAAGSAANLNDVQAANENQFGLWGCLMAGATVVIHSAGWLEGGLSISYEKLITDAEVLNMVAELCAGAQASDAEIGLDAIEDTAPSGHFFATAQTMARYQTEFYEPIIHDYANFGTWTERGSKDASTRARDVWQGILADPKSPTVNGDRLSALQDDIARRTQAGGAYPES | not soluble |
| MPMKDVLSRIGIGSATVDTVLPTDSVRAGESVRAEVHVEGGSTDQNIDSVYFALETEYKSDEGYKDAIIDQWQLTEPFTIEAGEKRRFETTIDIPRETPVTTRSTAVEIETGLDISMAVDPGDEDYIEVEPTHRTQAVFDALDSLGFSLHASACEAAAGSLFTTSANFAQEFEFRPQRGEFTGAVDEVEIVPVFDDDRLTVYLEVDRSAGLLSEVTDADERHTKLTIEAPDPDAIEPRLAEAIRELS | not soluble |
| MMKMIIAIVQDQDSQELADQLVKNNFRATKLATTGGFLRAGNTTFLCGVNDDRVDEILSVINQTCGNREQLVSPITPMGGSADSYIPYPVEVEVGGATVFVMPVDAFHQFLEHHHHHH | soluble |
| MTTAIGKKTTKLEPFKMERGVKYRDAAKTSVIQVRNIDPDQELLKKPEWMKIKLPTNSAKIDSIKYGMRRHGLHSVCEEASCPNLHECFNHGTATFMIMGAICTRRCPFCDVAHGKPLPLDPYEPRKVAETVQDMKLKYVVITSVDRDDLADRGAAHFAATVREIKALNPECKVEILVPDFRGRVEQAVAILKQNPPDVFNHNLENVPRLYREIRPGADYKWSLELLKIFKQEFPNIPTKSGLMVGLGETNEEILAVMQDLRDHGVTMLTVGQYLQPSRHHLRVERYVPPAEFEMFRSEAEKMGFEHAACGPFVRSSYHADLQAKGELVK | not soluble |
| MGSDKIHHHHHHAEKLSDGKVKLGVLTDMTGYYADLAGPGSVVAARMAVEDFGGKVLGKPVELVSADHQLKADVASNIARKWIDEGQVDAIVDLVSSSTAGAVMPVAAEKKRITLLSGPGTTAFTGEKCTRYNVHYTYNNWALANGTGREVVKQGGDSWFFLTADYIFGKSLEEDTTKVVKAAGGKVLGAARYPSPGTTDFSSYLLQAQGSGAKIVGLANAGADTVNSIRQAEEFGVTPKQSLAGLLVFITDVHSLGLEAAKGMYLTTAFYWDLNDETRKWSRRFFQKHGKMPTMVQAGVYSSVMHYLKAVQAAGTDDADAVMAKMRETPVNDFFAKNARIGPDGLLRHDMYLARVKAPKDSKQPWDYYQIVKTIPAAEAFPSVEAQACPLAKR | not soluble |
| MQSSKVVLLEPRTYSEAQGIADHLKGRRAVVINLQRMSTDQAVRIVDFLSGTVYAIGGDIQKIGPKTFMCTPENVDIVGAISELFGEEEETNIKRWLEHHHHHH | not soluble |
| MGSDKIHHHHHHMDPIEFIQKSASSIASTMHKLKLKYNPFSEKPIRGNTKFFVGRVSELREIGEILGSALHGSVANAAIVGTKGIGKSSMLNIIYYATKKQGHWVVEMTASQVTPRQFLIQLLYNILTENIITMSGTIKSDYMEHSSRILDMYRKLNNYGDKVPIHYPRERIERDLEYLINEVKSPDKLCIILIDEADQFAKKSCLSLLQFFHSFLYEEGILTFMAGSPTLMDDLTKISPPIKDRIPKIINMPPLSKDESYDLIRRRLEDAHIDGAEEFEPFTEEAIHKIVEECDGIPRKIIMTCSESISIAIRKGLTKIDEKVVKEAMHSLGISVGHQILNHLTPAQSEIVRAMAELGGSATVTQLAEYLKKSPSTIGTHLSDIYEMGYIYKEREGNNVYYKLSKELRDVLIGEDDELEM | not soluble |
| MTSPVPRLIEQFERGLDAPICLTWELTYACNLACVHCLSSSGKRDPGELSTRQCKDIIDELERMQVFYVNIGGGEPTVRPDFWELVDYATAHHVGVKFSTNGVRITPEVATRLAATDYVDVQISLDGATAEVNDAIRGTGSFDMAVRALQNLAAAGFAGVKISVVITRRNVAQLDEFATLASRYGATLRITRLRPSGRGTDVWADLHPTADQQVQLYDWLVSKGERVLTGDSFFHLAPLGQSGALAGLNMCGAGRVVCLIDPVGDVYACPFAIHDHFLAGNVLSDGGFQNVWKNSSLFRELREPQSAGACGSCGHYDSCRGGCMAAKFFTGLPLDGPDPECVQGHSEPALARERHLPRPRADHSRGRRVSKPVPLTLSMRPPKRPCNESPV | not soluble |
| MGSDKIHHHHHHMRNELPPENAYRILESGPIVLVSTRGADGRANLMTMGFHMMMQHEPPLVGAIIGPWDYSHQALSETGECVLAVPTVDLAETVVDIGNCSGDALDKFGHFGLTPVPAQTVDAPLVRQCWANLECRVVDDGWARRYNLWVLEVQRIWIDTARKETRLIHHQGDGRFSVDGDTLDLGERMTKWRHLMG | not soluble |
